We go through four sequences from US20030054360.

The target in data set [1] is T1, UGT 1A10 (UniProt Q9HAW8).
T1 sequence: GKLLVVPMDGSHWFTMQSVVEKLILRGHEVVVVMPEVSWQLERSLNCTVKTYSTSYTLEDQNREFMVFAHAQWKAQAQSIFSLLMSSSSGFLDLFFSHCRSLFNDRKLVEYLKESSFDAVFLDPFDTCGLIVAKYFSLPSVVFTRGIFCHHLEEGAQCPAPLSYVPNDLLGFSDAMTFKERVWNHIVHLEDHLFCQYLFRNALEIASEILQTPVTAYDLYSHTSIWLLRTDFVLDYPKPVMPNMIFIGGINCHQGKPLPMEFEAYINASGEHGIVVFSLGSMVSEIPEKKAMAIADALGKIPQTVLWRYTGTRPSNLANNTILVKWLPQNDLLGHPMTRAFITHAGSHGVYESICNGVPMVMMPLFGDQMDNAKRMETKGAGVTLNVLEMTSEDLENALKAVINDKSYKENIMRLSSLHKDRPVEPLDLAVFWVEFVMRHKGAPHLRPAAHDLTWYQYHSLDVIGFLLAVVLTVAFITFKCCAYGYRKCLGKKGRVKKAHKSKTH
Kind of data set: filter. Particulars: 5-BrdU replaces T; apparent photocrosslink KD; plateau 72%.

Data set [2] addresses T2, UDP-glucuronosyl transferase (UGT) 1A1 (UniProt P22309).
T2 sequence: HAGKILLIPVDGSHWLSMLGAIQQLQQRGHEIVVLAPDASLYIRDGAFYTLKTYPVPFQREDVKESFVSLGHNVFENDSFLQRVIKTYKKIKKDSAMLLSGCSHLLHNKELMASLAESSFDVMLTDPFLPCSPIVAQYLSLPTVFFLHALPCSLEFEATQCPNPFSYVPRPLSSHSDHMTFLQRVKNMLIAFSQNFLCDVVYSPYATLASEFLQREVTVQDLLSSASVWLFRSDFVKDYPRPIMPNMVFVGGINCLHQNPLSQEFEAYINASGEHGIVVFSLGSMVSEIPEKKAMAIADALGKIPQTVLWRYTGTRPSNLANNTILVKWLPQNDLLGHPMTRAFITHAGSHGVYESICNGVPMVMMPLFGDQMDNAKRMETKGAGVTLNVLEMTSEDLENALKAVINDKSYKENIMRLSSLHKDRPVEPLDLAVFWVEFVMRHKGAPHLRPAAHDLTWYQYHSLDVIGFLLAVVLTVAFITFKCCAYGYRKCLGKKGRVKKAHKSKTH
Description: filter. The settings on record: 5-BrdU replaces T; apparent photocrosslink KD; plateau 70%.

Data set [3] has as its target T3, UGT 1A3 (UniProt P35503).
T3 sequence: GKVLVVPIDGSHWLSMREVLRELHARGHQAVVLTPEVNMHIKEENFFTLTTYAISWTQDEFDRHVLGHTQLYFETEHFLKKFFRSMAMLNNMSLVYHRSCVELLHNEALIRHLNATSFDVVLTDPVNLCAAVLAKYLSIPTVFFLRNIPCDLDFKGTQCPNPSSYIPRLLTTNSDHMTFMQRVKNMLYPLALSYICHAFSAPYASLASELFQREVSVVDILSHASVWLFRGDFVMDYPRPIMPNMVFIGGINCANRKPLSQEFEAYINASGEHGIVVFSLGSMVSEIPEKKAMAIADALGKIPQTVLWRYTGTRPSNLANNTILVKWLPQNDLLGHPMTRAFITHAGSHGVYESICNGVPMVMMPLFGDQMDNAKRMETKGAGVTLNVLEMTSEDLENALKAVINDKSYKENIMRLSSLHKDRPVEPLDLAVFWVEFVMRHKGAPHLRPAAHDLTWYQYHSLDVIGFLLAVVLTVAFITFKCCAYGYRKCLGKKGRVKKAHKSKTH
Kind of data set: filter. Particulars: 5-BrdU replaces T; apparent photocrosslink KD; plateau 70%.

Data set [4] addresses T4, Interleukin-4 (UniProt P05112).
T4 sequence: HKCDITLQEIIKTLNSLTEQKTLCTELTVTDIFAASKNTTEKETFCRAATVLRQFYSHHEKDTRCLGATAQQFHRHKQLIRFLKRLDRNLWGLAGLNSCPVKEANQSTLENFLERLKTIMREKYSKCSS
Particulars: 5-BrdU replaces T; photocrosslinking rate at 25 nM target; KD printed as ??

On to “ATATATATGGGAGGACGATGCGGCACCACTTCTTTACCTCACTCTTTCTGCAGCAGACGACGAGCGGGAAAAAAAA [UGT 1A10 pool 140 clone 45]”, for which the Kd in data set [1] was 2.1 nM.
Regarding “ATATATATGGGAGGACGATGCGGCACCTGATTTCTACCCTTTACTTTGTGTGGCAGACGACGAGCGGGAAAAAAAA [UGT 1A1 pool 319 clone 73]”, in data set [2], the Kd is 22 nM.
Consider “ATATATATGGGAGGACGATGCGGGCCGACTTTGTCACCGAGTGCATCCGAGGTCAGACGACGAGCGGGAAAAAAAA [UGT 1A3 pool 141 clone 53]”, for which, in data set [3], the Kd turned out to be 3.9 nM.
Take “ATATATATGGGAGGACGATGCGGGCACAGGTTCTATCAACGTTGTCCTGAGTAATTGACCTGCAGACGACGAGCGGGAAAAAAAA [IL-4 pool 012 clone 63]”: the photocrosslinking rate in data set [4] came out at 0.71 J-1 cm2.
